In doi:10.1101/2020.08.31.20184481 one finds percent higher F-actin binding than WT, percent less association with F-actin than WT and percent reduction of association against WT GFP-βIISp data, which are given here for four substances.

One test addresses F-actin (UniProt P68135). Briefly: co-sedimentation.
A further test addresses R1003W GFP-βIISp (human) (UniProt Q01082). Briefly: pull-down.

Sequence of R1003W GFP-βIISp (human) (Q01082 whole entry R1003W): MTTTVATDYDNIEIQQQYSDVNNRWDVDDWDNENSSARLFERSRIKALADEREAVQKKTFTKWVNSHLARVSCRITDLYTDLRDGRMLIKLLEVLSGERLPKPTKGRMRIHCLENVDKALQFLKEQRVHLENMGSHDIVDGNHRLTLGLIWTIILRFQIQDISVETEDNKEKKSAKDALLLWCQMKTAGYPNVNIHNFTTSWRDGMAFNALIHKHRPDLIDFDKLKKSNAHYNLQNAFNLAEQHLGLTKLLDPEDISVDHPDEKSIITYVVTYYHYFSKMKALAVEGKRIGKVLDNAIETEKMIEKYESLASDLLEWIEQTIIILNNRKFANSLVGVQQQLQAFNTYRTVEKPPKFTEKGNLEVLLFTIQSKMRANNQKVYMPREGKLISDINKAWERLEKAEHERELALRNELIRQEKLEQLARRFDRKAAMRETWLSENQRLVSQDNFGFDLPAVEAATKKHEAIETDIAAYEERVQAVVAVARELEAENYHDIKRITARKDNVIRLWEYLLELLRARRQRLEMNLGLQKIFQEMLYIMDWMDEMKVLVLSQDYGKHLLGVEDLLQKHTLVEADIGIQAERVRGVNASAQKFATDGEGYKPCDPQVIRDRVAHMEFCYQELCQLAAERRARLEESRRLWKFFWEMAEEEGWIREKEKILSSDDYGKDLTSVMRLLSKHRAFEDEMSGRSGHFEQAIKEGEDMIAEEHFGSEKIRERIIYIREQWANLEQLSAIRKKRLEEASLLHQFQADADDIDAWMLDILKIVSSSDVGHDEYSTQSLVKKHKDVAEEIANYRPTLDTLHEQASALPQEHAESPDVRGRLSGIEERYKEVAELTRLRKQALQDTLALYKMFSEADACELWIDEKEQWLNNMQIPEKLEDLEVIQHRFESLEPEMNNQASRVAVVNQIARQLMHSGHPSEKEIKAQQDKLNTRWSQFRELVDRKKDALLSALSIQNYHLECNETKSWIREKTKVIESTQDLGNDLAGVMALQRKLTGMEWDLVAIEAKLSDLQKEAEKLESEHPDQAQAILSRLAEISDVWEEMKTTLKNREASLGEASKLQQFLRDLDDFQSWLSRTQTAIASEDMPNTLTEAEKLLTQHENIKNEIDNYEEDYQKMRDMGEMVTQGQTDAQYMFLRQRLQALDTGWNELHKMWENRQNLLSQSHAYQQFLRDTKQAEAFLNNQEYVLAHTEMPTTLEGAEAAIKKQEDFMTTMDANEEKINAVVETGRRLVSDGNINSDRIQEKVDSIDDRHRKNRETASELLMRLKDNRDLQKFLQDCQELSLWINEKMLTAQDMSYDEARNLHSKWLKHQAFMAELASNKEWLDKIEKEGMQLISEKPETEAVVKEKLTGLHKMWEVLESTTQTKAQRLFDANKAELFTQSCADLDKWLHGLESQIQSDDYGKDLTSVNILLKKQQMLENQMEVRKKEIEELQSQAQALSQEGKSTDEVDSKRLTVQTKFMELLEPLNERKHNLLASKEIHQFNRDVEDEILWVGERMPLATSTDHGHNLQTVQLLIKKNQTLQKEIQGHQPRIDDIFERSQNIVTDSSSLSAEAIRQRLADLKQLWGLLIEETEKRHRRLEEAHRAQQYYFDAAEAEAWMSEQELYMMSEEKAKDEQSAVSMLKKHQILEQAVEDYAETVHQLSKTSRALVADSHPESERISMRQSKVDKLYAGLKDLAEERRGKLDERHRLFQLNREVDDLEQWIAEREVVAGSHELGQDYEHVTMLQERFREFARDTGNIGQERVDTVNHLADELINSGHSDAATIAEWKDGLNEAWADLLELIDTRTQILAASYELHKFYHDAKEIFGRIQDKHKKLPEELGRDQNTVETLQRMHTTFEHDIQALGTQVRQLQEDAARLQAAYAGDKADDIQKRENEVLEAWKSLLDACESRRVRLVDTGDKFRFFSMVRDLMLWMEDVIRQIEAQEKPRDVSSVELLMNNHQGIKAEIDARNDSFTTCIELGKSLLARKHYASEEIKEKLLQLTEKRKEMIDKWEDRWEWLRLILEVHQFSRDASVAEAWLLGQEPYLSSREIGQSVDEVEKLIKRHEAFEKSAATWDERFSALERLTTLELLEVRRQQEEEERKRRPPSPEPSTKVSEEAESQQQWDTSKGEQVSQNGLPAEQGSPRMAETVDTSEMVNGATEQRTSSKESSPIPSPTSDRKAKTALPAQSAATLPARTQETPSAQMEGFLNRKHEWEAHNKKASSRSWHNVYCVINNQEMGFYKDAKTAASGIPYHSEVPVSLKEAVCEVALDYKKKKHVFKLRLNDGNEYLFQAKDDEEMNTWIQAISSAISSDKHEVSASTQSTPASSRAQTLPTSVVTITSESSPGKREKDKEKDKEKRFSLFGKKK

Consider “purified full-length βII-spectrin p.A850G (from UniProt Q01082-1 1-2364) (natural protein)”, for which, in the test with F-actin, the percent higher F-actin binding than WT is 50%. In the case of “purified full-length βII-spectrin p.T59I (from UniProt Q01082-1 1-2364) (natural protein)”, in the test with F-actin, the percent less association with F-actin than WT was 40%.

In the test with F-actin, “purified full-length βII-spectrin p.I159_Q160del (from UniProt Q01082-1 1-2364) (natural protein)” displayed a percent less association with F-actin than WT of 70%. For the substance “mCherry-tagged αII-spectrin, Q13813-2 1-2477”, in the test with R1003W GFP-βIISp (human), the percent reduction of association against WT GFP-βIISp stood at 40%.
